Laboratory results taken from paper PMC10256678, “Structural mechanism of intracellular autoregulation of zinc uptake in ZIP transporters” (Nature Communications, 2023).

Target: the molecule itself
Assay: cryo-EM structure; BbZIP in amphipol PMAL-C8 nanoparticles, purified with Cd2+, 20 mM HEPES pH 7.5, 100 mM NaCl; C2 symmetry, 3.05 Å (C1: 3.3 Å)

B1: ZIP-family zinc transporter from Bordetella bronchiseptica (BbZIP) (natural protein, UniProt A0A0H3LM39 1-309, looked up)
chain: MNQPSSLAADLRGAWHAQAQSHPLITLGLAASAAGVVLLLVAGIVNALTGENRVHVGYAVLGGAAGFAATALGALMALGLRAISARTQDAMLGFAAGMMLAASAFSLILPGLDAAGTIVGPGPAAAAVVALGLGLGVLLMLGLDYFTPHEHERTGHQGPEAARVNRVWLFVLTIILHNLPEGMAIGVSFATGDLRIGLPLTSAIAIQDVPEGLAVALALRAVGLPIGRAVLVAVASGLMEPLGALVGVGISSGFALAYPISMGLAAGAMIFVVSHEVIPETHRNGHETTATVGLMAGFALMMFLDTALG
notes: Zrt-/Irt-like protein (ZIP) zinc transporter of Bordetella bronchiseptica, full length gene synthesized and cloned into pET15b; molecular weight 31 kDa; Membrane protein; purified with Cd2+ (CdCl2) present; three Cd2+ ions per protomer and two phosphatidylethanolamine lipids at the dimer in the cryo-EM structure; also called WT BbZIP; source: E. coli C43 (DE3), purified (Ni-NTA, thrombin …)
- stoichiometry N: 2
